From US11472855, “RNA-binding protein” (Panitch Schwarze Belisario & Nadel LLP) come the findings set out here.

Holding throughout (conditions): label: Alexa680 at 5' and 3'
Data set [1] addresses human PUM1 PUF domain wild type (hPUF WT) (UniProt Q14671 SEQ:1-349). In words: EMSA; reference; 4 C, 100 mM NaCl, 1 mM EDTA, pH 7.5. As for the experimental part:
Each purified protein was diluted to a desired concentration with Binding Buffer, mixed with a binding buffer and Ribonuclease Inhibitor, Cloned (Invitrogen), and then, mixed with the RNA probe at a final concentration of 0.5 nM. […] A binding reaction was performed at 4° C. for 30 min. Subsequently, the solution was gently mixed by pipetting. A binding reaction was performed again at 4° C. for […].
The solution obtained after the binding reaction was applied to 6% a non-denaturing polyacrylamide gel, followed by electrophoresis at 4° C. and 200 V. When the electrophoresis marker (2 μL of 6×Dye+10 μL of 1×binding buffer) moved by 0.5 cm, the voltage was changed to 100 V, and electrophoresis was continuously performed until the electrophoresis marker moved by 3 cm. Finally, RNA was detected with Odyssey.

For data set [2], the target named is T1, hPUF_MT(R2_N12S,Q16R, R3→R5, R4→R6) (R2 repeat N12S,Q16R).
T1 chain: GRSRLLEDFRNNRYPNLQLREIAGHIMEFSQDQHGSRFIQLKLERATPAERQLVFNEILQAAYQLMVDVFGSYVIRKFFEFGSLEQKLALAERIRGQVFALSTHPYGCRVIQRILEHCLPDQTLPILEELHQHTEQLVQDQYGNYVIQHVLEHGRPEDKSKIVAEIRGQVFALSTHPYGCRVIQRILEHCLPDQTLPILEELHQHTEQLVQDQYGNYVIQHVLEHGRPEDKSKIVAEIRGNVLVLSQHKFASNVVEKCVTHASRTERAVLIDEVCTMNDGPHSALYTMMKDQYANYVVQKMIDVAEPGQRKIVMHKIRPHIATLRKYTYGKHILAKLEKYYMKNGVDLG
The data set is described as follows: EMSA; binds C exclusively.

Data set [3] concerns the target T2, hPUF_MT(R7_ILQ) (UniProt Q14671 SEQ:1-342).
T2 chain: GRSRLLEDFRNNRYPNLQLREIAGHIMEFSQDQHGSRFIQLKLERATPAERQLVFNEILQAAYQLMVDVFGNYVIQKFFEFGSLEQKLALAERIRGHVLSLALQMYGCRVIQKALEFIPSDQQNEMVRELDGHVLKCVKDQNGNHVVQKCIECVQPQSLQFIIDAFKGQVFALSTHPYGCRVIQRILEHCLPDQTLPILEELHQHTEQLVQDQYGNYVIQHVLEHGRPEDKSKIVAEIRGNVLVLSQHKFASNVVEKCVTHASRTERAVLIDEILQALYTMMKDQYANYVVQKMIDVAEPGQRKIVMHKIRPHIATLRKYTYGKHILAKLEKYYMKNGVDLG
The data set is described as follows: EMSA; comparable to WT.

Data set [4] concerns the target T3, hPUF_MT(R7_IRG) (UniProt Q14671 SEQ:1-342).
T3 chain: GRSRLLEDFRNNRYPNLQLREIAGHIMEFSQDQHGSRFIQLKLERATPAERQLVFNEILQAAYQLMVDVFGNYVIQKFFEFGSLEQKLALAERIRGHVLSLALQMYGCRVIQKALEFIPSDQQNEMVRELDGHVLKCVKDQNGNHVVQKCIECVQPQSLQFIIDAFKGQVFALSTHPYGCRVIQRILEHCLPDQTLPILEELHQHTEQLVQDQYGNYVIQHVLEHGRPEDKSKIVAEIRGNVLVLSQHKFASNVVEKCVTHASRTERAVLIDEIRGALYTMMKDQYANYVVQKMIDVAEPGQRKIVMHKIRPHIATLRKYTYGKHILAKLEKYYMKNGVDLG
The data set is described as follows: EMSA; comparable to WT.

For CCAGAAUUGUAUAUAUUCG (ssRNA) [OTS-1511], the binding result in data set [1] was “binds”; in data set [2], “no binding”; in data set [3] it was “binds”; in data set [4], “binds”.
